We go through four molecules from paper doi:10.1101/2020.10.08.331538 (bioRxiv, 2020).

What is called stoichiometry N is a count of units in the complex or per binding partner.

The target of series [1] is Pv-M17Δ53-78, Pv-M17 N-terminal loop deletion mutant (Plasmodium vivax) (UniProt A5K3U9). As to the kind of experiment: crystal structure.
The series “SEC” concerns the molecule itself. As to the kind of experiment: SEC. A general note: SEC sorts molecules by how far they enter the pores of the column.
Series [2] deals with the molecule itself. As to the kind of experiment: AUC.
Series [3] concerns the molecule itself. As to the kind of experiment: AUC. The source holds these as a separate data set.
The series “SEC-MALS” concerns the molecule itself. The experiment in a line: SEC-MALS.
Series [4] deals with the molecule itself. As to the kind of experiment: AUC. This is another data set of the same source.

Changes are numbered by the printed parent chain. Names and notes keep the numbering of the source. Values joined by “and” are separate entries in the source; they are usually repeats but may differ in a detail not shown here. Equal values may be shown once.

Consider “Pv-M17Δ53-78, Pv-M17 N-terminal loop deletion mutant (from UniProt A5K3U9 73-621) (enzyme)”, for which the stoichiometry N in series [1] was 6.

B1: Pv-M17, M17 aminopeptidase from Plasmodium vivax, wild type (residues 73 – 621) (enzyme)
chain: MATTVPQVVSLDPTTIPIDYHTPIDDLSIEVKDISAEACPADEGLIVFLLNSAPKHSSSGGSGGNGGSAGSSGNGEGGAQIKINSSVKDNTINEFLKEGNMENFTGKLGTSKSFYIANDQKKYVSLAYVGCGPANEETELEIRKVAYALVTLLHDSKHKKVSIIFEIKIEEALFRFFLEHLFYEYVTDERFKSADKSTETDFIKNLSLHIANADAYKGQIDKARVYFYGTYYAAQLIAAPSNYCNPVSLSNAAVELAQKVNLECKILDVKELEELKMGAYLSVGKGSMYPNKFIHLTYKGAQTGASQNEKKKIALIGKGITFDSGGYNLKAAPGSMIDLMKFDMSGCAAVLGCAYCIGTIKPDNVEVHFLSAVCENMVSKNSYRPGDIITASNGKTIEVGNTDAEGRLTLADALVYAEKLGVDYIVDIATLTGAMLYSLGTSYAGVFGNNDQLINKILSSSKTSNEPVWWLPIINEYRSSLNSKYADLNNISSSVKASSVVASLFLKEFIENTPWAHIDIAGVSWNFKARKPKGFGVRLLTEFVLNDAV
For B1, the “stoichiometry N” value in “SEC” is 4; in the series “AUC [2]” it was 2; in the series “AUC [3]” it was 6; in the series “SEC-MALS”, ~6 and ~2.

B2: PfA-M17, M17 aminopeptidase from Plasmodium falciparum, wild type (enzyme)
chain: MASEVPQVVSLDPTSIPIEYNTPIHDIKVQVYDIKGGCNVEEGLTIFLVNNPGKENGPVKISSKVNDKNVSEFLKDENMEKFNVKLGTSKHFYMFNDNKNSVAVGYVGCGSVADLSEADMKRVVLSLVTMLHDNKLSKLTVVFEINVDKNLFRFFLETLFYEYMTDERFKSTDKNVNMEYIKHLGVYINNADTYKEEVEKARVYYFGTYYASQLIAAPSNYCNPVSLSNAAVELAQKLNLEYKILGVKELEELKMGAYLSVGKGSMYPNKFIHLTYKSKGDVKKKIALVGKGITFDSGGYNLKAAPGSMIDLMKFDMSGCAAVLGCAYCVGTLKPENVEIHFLSAVCENMVSKNSYRPGDIITASNGKTIEVGNTDAEGRLTLADALVYAEKLGVDYIVDIATLTGAMLYSLGTSYAGVFGNNEELINKILNSSKTSNEPVWWLPIINEYRATLNSKYADINNISSSVKASSIVASLFLKEFVQNTAWAHIDIAGVSWNFKARKPKGFGVRLLTEFVLNDAL
Take B2: the “stoichiometry N” value was 2 in the series “AUC [2]”, 6 in “AUC [4]” and roughly 6 in the series “SEC-MALS”.

B3: PfA-M17 (D379A + E461L) (enzyme)
chain: B2 chain with D296A, E378L
For B3, the binding result in “AUC [2]” was “binds”.
